# Assay results published in article PMC3808164.
# Key:
# Assay in all cases: co-IP
# [1] = target: GFP-tagged VP1/2 with a single deletion of regions 1–4 (C terminus intact) (pseudorabies virus (PRV))
# [2] = target: GFP-tagged VP1/2[change]^S (deletion of region 6^S in the context of full-length VP1/2) (pseudorabies virus (PRV))
# [3] = target: GFP-VP1/2[change] (pseudorabies virus (PRV))
# [4] = target: GFP-tagged VP1/2 with the region 6^S deletion combined with deletion of regions 1–4 (pseudorabies virus (PRV))
# [5] = target: GFP-tagged VP1/2 regions 6 and 7 (deletion of regions 1–5) (pseudorabies virus (PRV))
Substance,fold decrease in binding against full-length VP1/2 [1] [fold],fold decrease in binding against full-length VP1/2 [2] [fold],efficiency of coimmunoprecipitation as percent of full-length GFP-VP1/2 [3] [%],fold decrease in binding against full-length VP1/2 [4] [fold],fold decrease in binding against full-length VP1/2 [5] [fold]
p150/glued dynactin subunit (from UniProt Q14203 1-1278) (natural protein),5,5,79,,
p50/dynamitin (from UniProt Q13561 1-401) (natural protein),9,4,,23,11
